Laboratory results reported in PMC9896932, “Apo and ligand-bound high resolution Cryo-EM structures of the human Kv3.1 channel reveal a novel binding site for positive modulators” (PNAS Nexus, 2022).

Biological target: the molecule itself
Assay: cryo-EM structure; purified flWT-Kv3.1a in LMNG 0.01%, Tris 20 mM pH 7.5, KCl 200 mM, DTT 1 mM; 2 mg/ml on the grid; apo (2.65 Å) and with 500 µM Lu AG00563 (3.0 Å), same organisation of subunits in both

B1: wild type full length human Kv3.1 isoform a tetramer (natural protein, UniProt P48547 1-511, looked up)
chain: MGQGDESERIVINVGGTRHQTYRSTLRTLPGTRLAWLAEPDAHSHFDYDPRADEFFFDRHPGVFAHILNYYRTGKLHCPADVCGPLYEEELAFWGIDETDVEPCCWMTYRQHRDAEEALDSFGGAPLDNSADDADADGPGDSGDGEDELEMTKRLALSDSPDGRPGGFWRRWQPRIWALFEDPYSSRYARYVAFASLFFILVSITTFCLETHERFNPIVNKTEIENVRNGTQVRYYREAETEAFLTYIEGVCVVWFTFEFLMRVIFCPNKVEFIKNSLNIIDFVAILPFYLEVGLSGLSSKAAKDVLGFLRVVRFVRILRIFKLTRHFVGLRVLGHTLRASTNEFLLLIIFLALGVLIFATMIYYAERIGAQPNDPSASEHTHFKNIPIGFWWAVVTMTTLGYGDMYPQTWSGMLVGALCALAGVLTIAMPVPVIVNNFGMYYSLAMAKQKLPKKKKKHIPRPPQLGSPNYCKSVVNSPHHSTQSDTCPLAQEEILEINRAGRKPLRGMSI
notes: Kv3.1 (KCNC1), human, canonical isoform a, wild type, full length; C-terminal prescission 3C site followed by GFP, removed by HRV 3C protease on elution from the resin; The GFP tag was still on the protein when it was captured on the anti-GFP resin (co-purification statement); In the model residues 120-191, 218-239, 268-280, 295-311 and 372-376 were not built; also called flWT-Kv3.1a; Kv3.1a; …
stoichiometry N: 4
